From patent publication US20100233165A1 (published 2010)
Changes are numbered by the printed parent chain. Values belong to the binder of their own block, whether it stands above or below them.

Key:
ALCAM/MEMD/CD166 [1] = biological target: T1, ALCAM/MEMD/CD166 (UniProt Q13740 28-583, limits assumed); test: apparent KD by FACS on Du-145 cells, IgG1 incubated at 4° C. overnight, curve fitting of MFI
T1 construct: whole, on cells; On Du-145 prostate cancer cells for FACS, and from lysates of surface-biotinylated Du-145 cells for IP/Western; Glycosylated, with a band of about 105 kDa; Du-145 is a human prostate cancer line
T1 sequence (looked up): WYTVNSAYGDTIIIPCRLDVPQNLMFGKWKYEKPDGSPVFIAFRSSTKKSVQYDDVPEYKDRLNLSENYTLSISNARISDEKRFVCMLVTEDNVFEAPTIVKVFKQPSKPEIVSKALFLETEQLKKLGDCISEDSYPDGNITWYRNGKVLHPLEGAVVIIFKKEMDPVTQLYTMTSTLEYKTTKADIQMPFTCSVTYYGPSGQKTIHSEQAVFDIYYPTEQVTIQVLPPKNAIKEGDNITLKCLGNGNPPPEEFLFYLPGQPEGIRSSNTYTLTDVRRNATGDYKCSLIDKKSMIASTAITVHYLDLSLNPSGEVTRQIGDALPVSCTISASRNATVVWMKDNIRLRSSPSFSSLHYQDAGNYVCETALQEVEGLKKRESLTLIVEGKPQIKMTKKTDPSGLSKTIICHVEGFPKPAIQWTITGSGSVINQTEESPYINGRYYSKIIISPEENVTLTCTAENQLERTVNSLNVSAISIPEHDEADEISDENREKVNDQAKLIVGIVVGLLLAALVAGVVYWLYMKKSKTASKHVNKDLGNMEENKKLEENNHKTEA
Description: Monodispersed DU-145 cells were incubated with varying concentrations of IgG1s at 4° C. overnight to allow equilibrium binding. After washing, bound human IgG1s were detected by R-phycoerythrin-conjugated goat anti-human secondary antibody and analyzed by FACS. Mean fluorescence intensity (MFI) values were plotted and the KD was determined by curve fitting using GraphPad (GraphPad Software, San Diego, Calif.).

ALCAM/MEMD/CD166 [2] = biological target: T1, ALCAM/MEMD/CD166; test: caption of the IHC table
Excerpt: Phage antibodies selected by LCM were expected to bind to clinically relevant antigens on cancer cells in situ. We performed immunohistochemical studies using soluble scFv fragments derived from LCM-selected phage antibody on prostate cancer tissue sections. […] The 585II41 scFv also stained tumor cells intensely on frozen tissue slides (FIG. 4, panel B). Some basal cells in normal epithelium adjacent to tumor were also stained with reduced intensity (Table 5). […] These experiments indicate that antibodies obtained from LCM selection bind to antigens that exist in patient specimens and thus are clinically relevant to human prostate cancer. The corresponding antigens are likely targets for therapeutic intervention.
TABLE 5 Immunohistochemistry (IHC) results of the 585II41 and UA20 scFv fragments on a panel of frozen CaP and normal tissues. The numbers of cases studied are indicated. Biotinylated scFv fragments were first tested on cell lines to ensure binding activity and then used for IHC studies. As a control, a random scFv with no binding activity to cell lines was used to register the background level of staining. No change, no change in staining level was observed when compared with the result of the control scFv

ALCAM/MEMD/CD166 [3] = biological target: T1, ALCAM/MEMD/CD166; test: FACS competition on Du-145 cells against 585II41 scFv

Kd (ALCAM/MEMD/CD166 [1]): 4.4 µM
B1: anti-ALCAM IgG1 (585II41.1, also known as H3) (antibody, V domains shown)
VH: QVQLVESGGGLVQPGGSLRLSCAASGFTFSSYAMSWVRQAPGKGLEWVSAISGSGGSTYYADSVKGRFTISRDNSKDTLYLQMNSLRAEDTAVYYCASRSLLDYWGQGTLVTVSS
VL: NFMLTQDPAVSVALGQTVRITCQGDSLRSYYASWYQQKPGQAPLLVIYGKNNRPSGIPDRFSGSSSGNTASLTITGAQAEDEADYYCNSRDSSGNPVFGGGTKVTVL
notes: Human IgG1 (detected with anti-human secondary antibody); also called H3 IgG; H3 IgG1

binding result (ALCAM/MEMD/CD166 [2]): binds
B2: 585II41 scFv (scFv, not shown: small tags and cut ends)
scFv: QVQLVESGGGLVQPGGSLRLSCAASGFTFSSYAMGWVRQAPGKGLEWVSAISGSGGSTYYADSVKGRFTISRDNSKDTLYLQMNSLRAEDTAVYYCASRSLLDYWGQGTLVTVSSGGGGSGGGGSGGGGSNFMLTQDPAVSVALGQTVRITCQGDSLRSYYASWYQQKPGQAPLLVIYGKNNRPSGIPDRFSGSSSGNTASLTITGAQAEDEADYYCNSRDSSGNPVFGGGTKVTVL
notes: Soluble monomeric scFv from E. coli periplasm, purified by IMAC; Biotinylated for FACS analysis by the general methods; also called clone #10; H3 variant

binding result (ALCAM/MEMD/CD166 [3]): binds
B3: H3 scFv (585II41.1) (scFv)
scFv: B2 scFv with G35S
notes: also called clone #11; anti-ALCAM scFv
